This is an account of results in paper PMC5026585 (ACS chemical biology, 2016).

Where a SMILES comes first, the peptide text is derived from it. [ ]: non-standard residue; d: D form. The star is where a group is joined. Benzoyl(4-tBu) = CC(C)(C)c1ccc(C(=O)*)cc1; Lys(Et2) = CCN(CC)CCCC[C@H](N)C(=O)O

In one assay the test system is chromodomain of MPP8. In words: selectivity profile of UNC3866, MPP8. Particulars: reduced potency relative to CBX7 and CBX4. Format: binding.
Assay [1] deals with PRC1 chromodomains (CBX2, -4, -6, -7, and -8). Particulars: cited from earlier work.
In another assay the test system is CDYL chromodomains. In words: selectivity profile of UNC3866, CDYL chromodomains. Format: binding. Particulars: reduced potency relative to CBX7 and CBX4.
The target in assay [2] is CBX8 chromodomain (chromobox protein homolog 8). In words: fluorescence polarisation.
For assay [3], the target named is CDY1 chromodomain (Testis-specific chromodomain protein Y 1). In words: fluorescence polarisation.
Assay [4] addresses CDYL chromodomain (Chromodomain Y-like protein). In words: fluorescence polarisation.
The target in assay [5] is CDYL2 chromodomain (Chromodomain Y-like protein 2). Nature of the assay: fluorescence polarisation.
In assay [6] the target is MPP8 chromodomain (M-phase phosphoprotein 8). In words: fluorescence polarisation.
The target of assay [7] is CBX7 chromodomain (chromobox protein homolog 7). In words: fluorescence polarisation.

Turning to `CCN(CC)CCCC[C@H](NC(=O)[C@H](CC(C)C)NC(=O)[C@H](C)NC(=O)[C@H](Cc1ccccc1)NC(=O)c1ccc(C(C)(C)C)cc1)C(=O)N[C@@H](CO)C(=O)OC` [UNC3866] ({Benzoyl(4-tBu)}-FAL[Lys(Et2)]S-OMe), the “selectivity, MPP8 relative to CBX7 and CBX4” value with chromodomain of MPP8 is reported as around 30 fold. The Kd in assay [1] is around 0.1 µM. For the same molecule, the “selectivity, CDYL chromodomains relative to CBX7 and CBX4” value with CDYL chromodomains is reported as around 8 fold.

Regarding UNC3866-FAM (peptide), the dissociation constant Kd in [2] is 0.666 µM; in assay [3], 6.41 µM; in [4] it was 1.01 µM; in [5], 0.71 µM; in [6] it was 4.79 µM; in [7], 0.093 µM.
